# Data published in publication PMC7098737.
# “And” between values parts separate entries of the source, which are not always exact repeats. Equal values may be shown once.
# Assays:
# [1] = target: M2-Strep-tag II fusion protein (Strep II tag, 6xHis tag, full-length human MBL2) (human) (UniProt P11226); experiment: native gel or EMSA; native PAGE of purified M1 and of purified M2; oligomer size from the apparent molecular weight against the monomer's size by SDS-PAGE; for M2 the names trimer, tetramer, pentamer count subunits of three 32-kDa chains
# [2] = target: recombinant human mannan-binding lectin M1 (6xHis, MAKT, human IgG1 Fc C220-G446, Arg linker, human MBL2 neck and CRD 81-228) (human) (UniProt P11226); experiment: as above
substance,measurement,setting,value
"M2-Strep-tag II fusion protein (Strep II tag, 6xHis tag, full-length human MBL2) (from UniProt P11226 21-248) (natural protein)",stoichiometry N,[1],4 and 3 and 5
"recombinant human mannan-binding lectin M1 (6xHis, MAKT, human IgG1 Fc C220-G446, Arg linker, human MBL2 neck and CRD 81-228) (from UniProt P11226 101-248) (Fc fusion)",stoichiometry N,[2],6 monomers
